This data set can be described thus: protein stability index of a GFP-peptide fusion (GPS, HEK-293T) (PSI 1-6); higher = more stable. As to conditions: c terminus: a fixed tail appended.

± gives the standard deviation.
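Further: 24-mer peptide tiles fused after GFP, lentivirally expressed, FACS-sorted into six equal bins by GFP/DsRed ratio, decoded by Illumina sequencing, PSI is the read-weighted mean bin number.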

In turn, LAQIAEVLEMFDLRMMVENIMNKE [RHOBTB1] showed a protein stability index (treatment: DMSO) of 2.54 ± 0.35 and a protein stability index (treatment: MLN4924 1 uM, 8 h) of 2.22 ± 0.12.
On to EGTSSIVMEIQKQIEKKEKKLHKI [TAF7L], for which the protein stability index is 4.18 ± 0.044 (treatment: DMSO) and 4.76 ± 0.15 (treatment: MLN4924 1 uM, 8 h).
Turning to PLYTLIDVLKYSYVRLVCKDVRAP [ZSWIM9], the protein stability index runs as follows: (treatment: DMSO) 2.84 ± 0.25; (treatment: MLN4924 1 uM, 8 h) 3.02 ± 0.63.
For HRVLQRLEQRRQQASEREAPSIEQ [FCHSD1] the same measures were 5.09 ± 0.25 and 4.99 ± 0.26.
As for GAFPPRGPRPVQSVVPEMEESGAQ [CDK4], the protein stability index (treatment: DMSO) turned out to be 5.22 ± 0.32 and the protein stability index (treatment: MLN4924 1 uM, 8 h) was 5.23 ± 0.18.
For LSFAHANCTLIISYQKPKEVVVAE [DPCD] the same measures were 2.69 ± 0.84 and 2.79 ± 0.73.
The matching figures for ITERDKRPEGYNLKDEEGKLKDLS [PPP2R2C]: 5.51 ± 0.23 and 5.54 ± 0.13.
The matching figures for SQEREGLLIVKLEEDCAWSQELPP [ZNF263]: 3.72 ± 0.068 and 3.89 ± 0.18.
Take ELRLVFGPLGDQLHAQLRDLTSSS [ELF3]: the protein stability index by setting is: (treatment: DMSO) 2.17 ± 0.25; (treatment: MLN4924 1 uM, 8 h) 2.25 ± 0.29.
The matching figures for AGFDAARGDPLGGCQVSPEGYAHL [HDAC6]: 3.75 ± 0.26 and 3.78 ± 0.2.
For the sequence YINLLNYMDRFTVAGVLPDIEQFF [SPNS1], the protein stability index is, setting by setting: (treatment: DMSO) 2.93 ± 0.63; (treatment: MLN4924 1 uM, 8 h) 2.84 ± 0.64.
The matching figures for ASREENQAGPEATTSDPQDLDMKK [PALM]: 5.53 ± 0.46 and 5.43 ± 0.42.
On to DNLLPGMQPSKPQQPSLNTMIQQQ [CLINT1], for which the protein stability index amounted to 4.38 ± 0.29 (treatment: DMSO) and 4.45 ± 0.28 (treatment: MLN4924 1 uM, 8 h).
The matching figures for PRPQSEESWDEEDKRNYPSLELDK [CHGB]: 5.52 ± 0.25 and 5.44 ± 0.25.
The matching figures for LLSSSEEECKDRERPMYGRDSAYQ [EMD]: 4.48 ± 0.23 and 4.51 ± 0.46.
Turning to PECGLAKKPPEESTCFERPCFKWY [ADAMTSL2], the protein stability index worked out at 3.4 ± 0.42 (treatment: DMSO) and 2.96 ± 0.34 (treatment: MLN4924 1 uM, 8 h).
The matching figures for AVTDLLGRRQRKSEKRRDPPNGPN [WASL]: 4.06 ± 0.14 and 4.31 ± 0.29.
The matching figures for QKEVLPSMRKIVATWMLEVCEEQK [CCND1]: 3.01 ± 0.27 and 3 ± 0.3.
For TKPVVILPCQHNLCRKCANDIFQA [TRIM63] the same measures were 2.36 ± 0.26 and 2.55 ± 0.27.
The sequence EEREKEAAEQAERSQSSIVPEEEQ [SMARCE1] had a protein stability index (treatment: DMSO) of 5.62 ± 0.36 and a protein stability index (treatment: MLN4924 1 uM, 8 h) of 5.57 ± 0.15.
The matching figures for KQTQCPADPLQLNKALSIILHLIC [FEM1C]: 1.91 ± 0.17 and 2.21 ± 0.39.
For SRHVTTRAALTYTSLEITILTSQP [M1AP] the same measures were 2.63 ± 0.51 and 2.6 ± 0.65.
The matching figures for IPLYPLGCLAEAVSVIQSIPIFNE [HACD3]: 2.7 ± 0.47 and 2.97 ± 0.81.
For SGCDKEALLTGGGSENRNHRLLNM [RNF180], the protein stability index stood at 3.58 ± 0.28 (treatment: DMSO) and 3.86 ± 0.29 (treatment: MLN4924 1 uM, 8 h).
For WRYVSSLPQPLAAHAGAVHNGKIY [KLHL14] the same measures were 2.51 ± 0.26 and 2.73 ± 0.078.
The matching figures for TDGRPQDSVAEVAAKARDTGILIF [MATN2]: 2.86 ± 0.23 and 3.12 ± 0.34.
For CMVEIVQKYDPDKDEWHKVFDLPE [KLHL13] the same measures were 2.52 ± 0.27 and 2.59 ± 0.24.
Turning to YEENEGAGPYLLNGSYLELSSDRV [ADAMTSL2], the protein stability index by setting is: (treatment: DMSO) 3.88 ± 0.33; (treatment: MLN4924 1 uM, 8 h) 4.07 ± 0.46.
Turning to FMLMLLVLGIQVKCFHEIITIGYR [CDS1], the protein stability index came out at 3.31 ± 0.45 (treatment: DMSO) and 3.3 ± 0.41 (treatment: MLN4924 1 uM, 8 h).
The matching figures for DRLNEQEGVPSVFNPPPSRPLQVN [FAF2]: 4.23 ± 0.28 and 4.25 ± 0.1.
For EGYTSFWNDCISSGLRGGILIELA [GOLPH3L] the same measures were 3.14 ± 0.74 and 2.49 ± 0.52.
The matching figures for NGFPDSTGDPLPEISKDNSCKENC [EDARADD]: 5.2 ± 0.24 and 5.17 ± 0.48.
Consider TERGLSRKHIIEGLKASLERLQLE [KCNAB2], for which the protein stability index stood at 2.5 ± 0.32 (treatment: DMSO) and 2.22 ± 0.19 (treatment: MLN4924 1 uM, 8 h).
For SPAQQVPKNPALEAFLAQFSQLED [TOR1AIP2], the protein stability index is, setting by setting: (treatment: DMSO) 4.26 ± 0.45; (treatment: MLN4924 1 uM, 8 h) 4.38 ± 0.31.
The matching figures for EFEQFESTIGFKLPNHRAAKRLWK [EPB41L3]: 3.17 ± 0.39 and 3.27 ± 0.61.
For QDSPLDLTVRKSQSEPSEQDGVLD [LCOR] the same measures were 5.42 ± 0.32 and 5.35 ± 0.37.
The matching figures for PSKTYPAFLEPDETFIVPDSFLVA [SPSB1]: 2.39 ± 0.33 and 2.45 ± 0.15.
For the sequence VKNDRDRVGHKSIPMRNLRARPAK [SERPINB5], the protein stability index came out at 3.98 ± 0.35 (treatment: DMSO) and 4.4 ± 0.11 (treatment: MLN4924 1 uM, 8 h).
For AVFAVSAVVHEYALAVCLSFFYPV [SOAT1], the protein stability index by setting is: (treatment: DMSO) 3.23 ± 0.37; (treatment: MLN4924 1 uM, 8 h) 3.07 ± 0.23.
In the case of QLRFQHSQDVSDCYLELFPAHLYF [PLEKHN1], the protein stability index is, setting by setting: (treatment: DMSO) 2.32 ± 0.54; (treatment: MLN4924 1 uM, 8 h) 2.27 ± 0.28.
The matching figures for PDLNILEDSAESRPWRAGVLAEGD [PSD2]: 4.87 ± 0.13 and 4.99 ± 0.14.
For FGAAYVLEQASSHIGNSTQATVRD [ATL3] the same measures were 3.06 ± 0.28 and 3.72 ± 0.33.
The matching figures for AGGFSIRNQKGEQVFRLAFRSGAL [MYORG]: 1.77 ± 0.2 and 2.28 ± 0.39.
As for SVQVDGQARTQKLQGLIPGARYEV [TNXB], the protein stability index is 2.6 ± 0.62 (treatment: DMSO) and 3.28 ± 0.26 (treatment: MLN4924 1 uM, 8 h).
With IARDQTKSIVEKIQAKLPGIAKKK [RTN3], the protein stability index reads like this: (treatment: DMSO) 3.8 ± 0.15; (treatment: MLN4924 1 uM, 8 h) 3.75 ± 0.32.
The matching figures for EPLFEAGDATLASDLQDWASVGAF [FOXJ1]: 3.85 ± 0.14 and 3.92 ± 0.4.
The matching figures for SMQCKVILLDGSEYTCDVEKRSRG [EPB41L3]: 3.04 ± 0.29 and 3.61 ± 0.3.
The matching figures for VGELLPCKICGRTFFPVALKKHGP [ZC2HC1A]: 2.84 ± 0.51 and 2.57 ± 0.19.
On to AVSDGRHMFVWGGYKSNQVRGLYD [KLHDC2], for which the protein stability index came out at 2.28 ± 0.58 (treatment: DMSO) and 2.27 ± 0.51 (treatment: MLN4924 1 uM, 8 h).
With MLESPGAPCRSAQASVSCALEALE [HDAC6], the protein stability index came out at 3.35 ± 0.58 (treatment: DMSO) and 3.38 ± 0.4 (treatment: MLN4924 1 uM, 8 h).
Take KEEEQSCEYETRLPGNHSTSQEIF [ZNF232]: the protein stability index runs as follows: (treatment: DMSO) 5.02 ± 0.3; (treatment: MLN4924 1 uM, 8 h) 5 ± 0.13.
For MDSGTRPVGSCCSSPAGLSREYKL [RIT1] the same measures were 3.35 ± 0.18 and 3.3 ± 0.16.
The matching figures for PICSANHKESKMTIFEKENFIGRQ [CRYBA1]: 3.34 ± 0.27 and 3.46 ± 0.18.
The matching figures for RQVVDILWSDPMAQEGCKANTIRG [PPEF2]: 3.14 ± 0.31 and 3.55 ± 0.38.
Regarding FQVLCSINSIIHNPRAPVIIYKQT [CEP70], the protein stability index (treatment: DMSO) amounted to 2.76 ± 0.83 and the protein stability index (treatment: MLN4924 1 uM, 8 h) stood at 2.6 ± 1.1.
For TPQHHEKQYAMQRPNDDSLAFLDK [IQUB] the same measures were 4.53 ± 0.23 and 4.58 ± 0.17.
For PVTERQIEREHLIQLRRWQETRGE [TBC1D10A] the same measures were 4.25 ± 0.14 and 4.33 ± 0.18.
The matching figures for SMKHTATARFQRNHRLISEILSES [SMARCE1]: 2.95 ± 0.12 and 3.24 ± 0.5.
In the case of KMKGFGFWPAKVMQKEDNQVDVRF [ZMYND11], the protein stability index is, setting by setting: (treatment: DMSO) 3.11 ± 0.39; (treatment: MLN4924 1 uM, 8 h) 3.11 ± 0.34.
For PDLNTLLWEAEDRQNVPRKVPNHY [CPXM2] the same measures were 3.87 ± 0.27 and 3.86 ± 0.092.
For DLVDLFDGTSQSTGGSADLFGGFA [CLINT1] the same measures were 2.69 ± 0.23 and 3.2 ± 0.32.
With RGEGIQAPSFSSYLYFLFCPTLIY [SOAT2], the protein stability index reads like this: (treatment: DMSO) 3.49 ± 0.45; (treatment: MLN4924 1 uM, 8 h) 3.36 ± 0.69.
The matching figures for QSFREQEEPSNKRVRPLARVTSLA [NET1]: 4.21 ± 0.17 and 4.23 ± 0.097.
For the sequence VQSYMEHYCNSSTDRRVLLMFLDI [SPACA9], the protein stability index by setting is: (treatment: DMSO) 2.78 ± 0.38; (treatment: MLN4924 1 uM, 8 h) 2.71 ± 0.56.
For VMFQRRYYKPGLLMMCFILPTLVP [SCD] the same measures were 3.51 ± 0.77 and 2.72 ± 0.71.
The matching figures for TSFIRGPNPSKVLQQLLVLQPEQQ [CDS1]: 3.37 ± 0.19 and 3.3 ± 0.095.
For KHFLEAIENNKYGWFWVCPGGGDI [ZC3H15] the same measures were 2.8 ± 0.4 and 2.43 ± 0.39.
Regarding GFEYDGKINAWDLYYYMTQTEELK [NLN], the protein stability index runs as follows: (treatment: DMSO) 2.81 ± 0.035; (treatment: MLN4924 1 uM, 8 h) 2.49 ± 0.39.
The matching figures for NAEMKSAMRKLWSKKVSLAGKWLY [OR4A15]: 3.85 ± 0.63 and 2.8 ± 0.85.
As to GDFEEAFDHLQNRLIATKNPEEIR [TENT5C], the protein stability index reads like this: (treatment: DMSO) 5.16 ± 0.17; (treatment: MLN4924 1 uM, 8 h) 5.19 ± 0.21.
The matching figures for KKSELLQRITQEQEKKLSFIEALI [TRIM63]: 2.07 ± 0.3 and 2.41 ± 0.35.
For LELPEDEEEKKKMEESKAKFENLC [HSP90AB1], the protein stability index was 5.46 ± 0.42 (treatment: DMSO) and 5.3 ± 0.33 (treatment: MLN4924 1 uM, 8 h).

For the origin of these results see the supplement of paper PMC10567573.
